The record followed here is publication PMC9574550, “Protein engineering approach to enhance activity assays of mono-ADP-ribosyltransferases through proximity” (Protein Engineering, Design and Selection, 2022).

One assay deals with T1, PARP16 (Homo sapiens, UniProt Q8N5Y8).
T1 construct: catalytic fragment, MBP-PARP16-Dockerin (PARP16-Dock) on C8 scaffold
T1 sequence (Q8N5Y8 94-279 limits assumed): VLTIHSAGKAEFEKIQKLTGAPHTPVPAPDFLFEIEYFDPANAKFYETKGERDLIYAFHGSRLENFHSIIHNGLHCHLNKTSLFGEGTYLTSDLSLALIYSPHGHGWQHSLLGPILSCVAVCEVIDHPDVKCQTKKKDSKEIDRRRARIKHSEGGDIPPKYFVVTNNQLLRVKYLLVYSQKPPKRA
Kind of assay: homogeneous NAD+ conversion assay, dose-response. Format: biochemical.

Assay [1] has as its target C8 scaffold (eight tandem repeats of H. thermocellum CipA cohesin 1) (Hungateiclostridium thermocellum) (UniProt Q06851). Kind of assay: SEC-MALS; 35 μM enzyme mixed with C8 scaffold in SEC buffer with 2 mM CaCl2, S200 Increase 10/300; apparent excess of PARP10-Dock (limited C8 scaffold).
Assay [2] has the same target. Kind of assay: SEC-MALS; 35 μM enzyme mixed with C8 scaffold in SEC buffer with 2 mM CaCl2, S200 Increase 10/300; ratio that resulted in no visible unbound PARP10-Dock (saturating conditions).

Turning to `CN(C)CC(=O)Nc1ccc2[nH]c(=O)c3ccccc3c2c1` [PJ34], the IC50 against PARP16 was 38 µM.

Turning to “PARP10-Dock (MBP-PARP10 catalytic fragment-Cel48S dockerin) (from UniProt A3DH67 673-739) (enzyme)”, the figures for the stoichiometry N (PARP10-Dock per C8 scaffold) in assay [1] and in assay [2] were under 8 and 7, respectively.
